Columns and labels:
[1] = molecular target: T1, PD1 naturally expressed by activated human lymphocytes (PHA-activated PBMC) (human, UniProt Q15116 25-288); assay: cell-based or functional assay
[2] = molecular target: T1, PD1 naturally expressed by activated …; assay: flow cytometry on PHA-activated human PBMC
Experimental: After being obtained from fresh human peripheral blood by gradient centrifugation of lymphatic separation medium, the PBMCs were adjusted to the density of 1×10⁶ cells/mL and inoculated into T75, and meanwhile added with PHA-L (Sigma) at a final concentration of 1 μg/mL to stimulate the proliferation of lymphocytes. After being allowed to stand in an incubator at 37° C. and 5% CO₂ for 3 days, the cell suspension was taken out and centrifuged. The supernatant was discarded, and the precipitate was resuspended in a buffer (PBS containing 3% BSA) and added into a 96-well U-shaped plate at 2E5/well, then added with different concentration gradients of the humanized antibody, incubated at 4° C. for 30 minutes, and then centrifuged at 300 g for 5 minutes. The cells were washed once with the buffer, and added with a PE-labeled goat anti-human IgG fluorescent antibody (Biolegend), and incubated at 4° C. for 30 minutes. Then cells were centrifuged and washed once, resuspended in PBS, and subsequently analyzed by a CytoFlex flow cytometer to detect the quantity of the antibody bound to the PBMC.

[3] = molecular target: T2, recombinant human PD-1 expressed on the surface of CHO cells (CHO-hPD1) (human, UniProt Q15116 25-288); assay: flow cytometry, blocking of PD-L1-mFc (0.2 µg/mL) binding to CHO-hPD1
T2 construct: whole, on cells; also called CHO-PD1; hPD1-transfected CHO cells
Experimental: (§1) The ability of the anti-PD-1 humanized antibody to block the binding of the ligand to a transfected CHO cells which could stably express PD-1 on the surface was analyzed by a flow cytometer.
(§2) The CHO-PD1 cells were resuspended with a buffer (PBS containing 3% BSA), and adjusted to the density of 2×10⁶ cells/mL. The cell suspension was added into a 96-well U-shaped plate at 100 μL/well and centrifuged at 300 g for 5 minutes, and then the supernatant was discarded.
(§3) The cells were centrifuged at 300 g for 5 minutes, washed once with the buffer, added with a PE-labeled goat anti-mouse IgG fluorescent antibody (Biolegend), and incubated at 4° C. for 30 minutes. The cells were centrifuged and washed once, then resuspended in PBS, and subsequently analyzed by a CytoFlex flow cytometer to detect the quantity of the ligand protein bound to the cells, and calculate the IC₅₀ value of the PD-1 antibody in blocking the binding.

[4] = molecular target: T2, recombinant human PD-1 expressed on the …; assay: flow cytometry, blocking of PD-L2-mFc (0.2 µg/mL) binding to CHO-hPD1
Experimental: as §1, §2, §3

human CD28-hFc [5] = molecular target: T3, human CD28-hFc (human, UniProt P10747 19-152); assay: ELISA, antigen coated at 1 µg/mL
T3 construct: Commercial protein; also called CD28 (ACRO); not shown: human Fc (hFc)
Description: (§4) A horse radish peroxidase (HRP)-coupled anti-human IgG (F) was used as the secondary antibody. After developed with TMB and terminated, it was read for an OD450 value with a microplate reader.

human ICOS-hFc [6] = molecular target: T4, human ICOS-hFc (human, UniProt Q9Y6W8 21-140); assay: ELISA, antigen coated at 1 µg/mL
T4 construct: Commercial protein; also called ICOS (ACRO); not shown: human Fc (hFc)
T4 sequence (looked up): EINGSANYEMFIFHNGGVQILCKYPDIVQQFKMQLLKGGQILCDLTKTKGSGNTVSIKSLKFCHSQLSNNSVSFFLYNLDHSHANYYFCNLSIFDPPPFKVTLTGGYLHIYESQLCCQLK
Description: as §4

human CTLA4-hFc [7] = molecular target: T5, human CTLA4-hFc (human, UniProt P16410 37-162, limits assumed); assay: ELISA, antigen coated at 1 µg/mL
T5 construct: Commercial protein; also called CTLA-4 (ACRO); not shown: human Fc (hFc)
Description: as §4

human CD28-hFc [8] = molecular target: T3, human CD28-hFc; assay: ELISA, antigen coated at 1 µg/mL, antibody 10 µg/mL
Description: as §4

human PD-1-hFc = molecular target: T6, human PD-1-hFc (human, UniProt Q15116 25-167); assay: as above
T6 construct: Commercial protein; also called PD-1 (ACRO); not shown: human Fc (hFc)
Description: as §4

human ICOS-hFc [9] = molecular target: T4, human ICOS-hFc; assay: as above
Description: as §4

human CTLA4-hFc [10] = molecular target: T5, human CTLA4-hFc; assay: as above
Description: as §4

[11] = molecular target: T2, recombinant human PD-1 expressed on the …; assay: flow cytometry on CHO-hPD1 cells
Experimental: (§5) A CHO (Chinese Hamster Ovary Cells) cell line, CHO-hPD1, capable of expressing a recombinant human PD-1 on the cell surface, and a CHO cell line, CHO-cynoPD1, capable of expressing a monkey PD1 on the cell surface were prepared by recombinant technology. […] The specific method was: In order to evaluate the binding of the humanized antibody to the CHO-hPD1, 2×10⁵ CHO-hPD1 cells and the humanized antibody diluted in concentration gradient (with an initial concentration of 30 μg/mL, and diluted in 3-fold gradient) were added into a 96-well plate, and incubated at 4° C. for 30 minutes. The cells were washed once with a buffer (PBS containing 3% BSA) and then added with a PE-labeled anti-human IgG (Fc) Ab (Biolegend) fluorescent secondary antibody, incubated at 4° C. for 30 minutes, then washed once with the buffer and subsequently resuspended in PBS. Thereafter, the cell suspension was subjected to flow cytometric analysis by CytoFlex (Beckman flow cytometer), and the quantity of the antibody bound to the cells was measured according to the mean fluorescence intensity (MFI) of the staining. The same method was used for evaluating the binding of the humanized antibody to the CHO-cyno cells.

[12] = molecular target: T7, monkey PD1 expressed on the surface of CHO cells (CHO-cynoPD1) (monkey); assay: flow cytometry on CHO-cynoPD1 cells
T7 construct: whole, on cells
Experimental: as §5

[13] = molecular target: T8, PD-1-his (ACRO) recombinant protein (UniProt Q15116 25-167); assay: BLI (ForteBio Octet), PD-1-his loaded on sensor, antibody in solution
T8 construct: Commercial protein; not shown: his tag
Experimental: Finally, analysis was conducted by utilizing a kinetic model, and data processing was conducted.

T6 sequence (Q15116 25-167 limits assumed): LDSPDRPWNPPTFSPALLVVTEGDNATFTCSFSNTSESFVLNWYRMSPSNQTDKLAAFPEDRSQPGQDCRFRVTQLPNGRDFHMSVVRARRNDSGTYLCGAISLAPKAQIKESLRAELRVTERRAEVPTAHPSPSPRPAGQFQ
T8 sequence (Q15116 25-167 limits assumed): as above
T2 sequence (Q15116 25-288): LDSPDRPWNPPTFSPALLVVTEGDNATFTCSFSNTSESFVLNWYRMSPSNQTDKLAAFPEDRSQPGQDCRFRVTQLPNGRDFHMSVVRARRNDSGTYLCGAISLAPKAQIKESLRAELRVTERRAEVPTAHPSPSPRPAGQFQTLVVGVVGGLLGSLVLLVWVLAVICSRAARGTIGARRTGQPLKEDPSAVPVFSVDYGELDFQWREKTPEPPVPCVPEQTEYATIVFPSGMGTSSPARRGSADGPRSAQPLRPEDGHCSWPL
T1 sequence (Q15116 25-288): as above
T5 sequence (P16410 37-162 limits assumed): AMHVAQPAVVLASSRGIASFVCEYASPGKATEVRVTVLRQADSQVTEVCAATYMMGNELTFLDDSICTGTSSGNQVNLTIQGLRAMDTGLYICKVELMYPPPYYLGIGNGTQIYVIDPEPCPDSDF

| Binder | IFNγ EC50 (mixed lymphocyte reaction) [1] | IL2 EC50 (mixed lymphocyte reaction) [1] | EC50 [2] | IC50 [3] | IC50 [4] | binding result (human CD28-hFc [5]) | binding result (human ICOS-hFc [6]) | binding result (human CTLA4-hFc [7]) | OD450 (human CD28-hFc [8]) | OD450 (human PD-1-hFc) | OD450 (human ICOS-hFc [9]) | OD450 (human CTLA4-hFc [10]) | EC50 [11] | EC50 [12] | Kd [13] | koff [13] | kon [13] |
| --- | --- | --- | --- | --- | --- | --- | --- | --- | --- | --- | --- | --- | --- | --- | --- | --- | --- |
| anti-PD-1 humanized antibody c43 (antibody, V domains shown) VH: QVQLVQSGAEVKKPGASVKVSCKASGYTFTTYYMYWVRQAPGQGLEWIGGINPSNGGTNYAEKFKGRVTLTVDTSTSTAYMELSSLRSEDTAVYYCTRRDSNYDGGFDYWGQGTTVTVSS VL: DIQMTQSPSSLSASVGDRVTITCRASKSVSTSGYSYMHWYQQKPGKAPKLLIYLAYHLESGVPSRFSGSGSGTDFTLTISSLQPEDFATYYCQHSWELPITFGQGTKLEIKR | 2.73 nM | 2.79 nM | 0.281 nM | 3.14 nM | 7.95 nM | no binding (tested: 10 µg/mL) | no binding (tested: 10 µg/mL) | no binding (tested: 10 µg/mL) | 0.189 OD450 | 1.23 OD450 | 0.131 OD450 | 0.255 OD450 | 1.58 nM | 0.894 nM | < 0.001 nM | < 1e-07 s⁻¹ | 984000 M⁻¹ s⁻¹ |
| anti-PD-1 humanized antibody c22 (antibody, V domains shown) VH: QVQLVQSGAEVKKPGASVKVSCKASGYTFTTYYMYWVRQAPGQGLEWMGGINPSNGGTNFNEKFKSRVTMTVDKSTSTAYMELSSLRSEDTAVYYCTRRDSNYDGGFDYWGQGTTVTVSS VL: DIQLTQSPSSLSASVGDRATITCRASKSVSTSGYSYMHWYQQKPGKAPKLLIYLAYHLESGVPSRFSGSGSGTDFTLTISSVQPEDFATYYCQHSWELPITFGQGTKLEIKR | 0.727 nM | 13.3 nM | 0.141 nM | 3.1 nM | 6.88 nM | no binding (tested: 10 µg/mL) | no binding (tested: 10 µg/mL) | no binding (tested: 10 µg/mL) | 0.18 OD450 | 1.33 OD450 | 0.117 OD450 | 0.209 OD450 | 1.68 nM | 0.63 nM | < 0.001 nM | < 1e-07 s⁻¹ | 985000 M⁻¹ s⁻¹ |
| anti-PD-1 humanized antibody c53 (antibody, V domains shown) VH: QVQLVQSGAEVKKPGASVKVSCKASGYTFTTYYMYWVRQAPGQGLEWMGGINPSNGGTNYAQKFQGRATMTVDTSTSTAYMELSSLRSEDTAVYYCTRRDSNYDGGFDYWGQGTTVTVSS VL: DIQMTQSPSSLSASVGDRVTITCRASKSVSTSGYSYMHWYQQKPGKAPKLLIYLAYHLESGVPSRFSGSGSGTDFTLTISSLQPEDFATYYCQHSWELPITFGQGTKLEIKR | 6.65 nM | 1.88 nM | 0.213 nM | 3.02 nM | 7.05 nM | no binding (tested: 10 µg/mL) | no binding (tested: 10 µg/mL) | no binding (tested: 10 µg/mL) | 0.176 OD450 | 1.48 OD450 | 0.133 OD450 | 0.239 OD450 | 1.71 nM | 0.743 nM | < 0.001 nM | < 1e-07 s⁻¹ | 979000 M⁻¹ s⁻¹ |

— patent US20240287184A1 (GUANGDONG FAPON BIOPHARMA, published 2024)
